The results in this text go back to paper PMC5885369, “2-Oxoglutarate regulates binding of hydroxylated hypoxia-inducible factor to prolyl hydroxylase domain 2† †Electronic supplementary information (ESI) available: Details of experimental procedures and additional experiments. See DOI: 10.1039/c8cc00387d” (Chemical Communications (Cambridge, England), 2018).

Broadly, the Kd is the constant that tells how readily two partners part at equilibrium. Read a low Kd as tighter binding.

This experiment concerns the target T1, prolyl hydroxylase domain 2, PHD2_(181–426) (human, UniProt Q9GZT9 181-426).
T1 construct: Used apo, or with Fe(II), Zn(II), 2OG, succinate or fumarate; also called tPHD2; apo-tPHD2; source: recombinantly expressed
Nature of the experiment: ITC; apo-tPHD2. Conditions: both partners purified. Background: In ITC the heat of successive injections is recorded.

Square brackets hold non-standard residues; d marks the D form. Ends that are not written are not given here. Hyp = O=C(O)[C@@H]1C[C@@H](O)CN1

T1 sequence (Q9GZT9 181-426): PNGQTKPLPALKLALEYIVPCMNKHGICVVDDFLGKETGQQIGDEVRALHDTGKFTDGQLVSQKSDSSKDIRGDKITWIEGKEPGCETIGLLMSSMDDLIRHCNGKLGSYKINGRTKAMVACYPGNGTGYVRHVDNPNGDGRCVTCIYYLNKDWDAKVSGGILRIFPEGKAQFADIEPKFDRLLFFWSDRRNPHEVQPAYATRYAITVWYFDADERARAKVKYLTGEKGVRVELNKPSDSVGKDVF

B1: hydroxylated 19-mer HIF-1α CODD peptide (peptide)
chain: DLDLEMLA[Hyp]YIPMDDDFQL
B1 displayed a Kd of 4.6 ± 1.4 µM.
